Patent US20060264369, “Aptamers to von Willebrand Factor and their use as thrombotic disease therapeutics” (published 2006)
Where a chain is given by its changes, count along the chain named.

T1: von Willebrand factor A1 domain (rabbit) (Oryctolagus cuniculus)
T1 chain: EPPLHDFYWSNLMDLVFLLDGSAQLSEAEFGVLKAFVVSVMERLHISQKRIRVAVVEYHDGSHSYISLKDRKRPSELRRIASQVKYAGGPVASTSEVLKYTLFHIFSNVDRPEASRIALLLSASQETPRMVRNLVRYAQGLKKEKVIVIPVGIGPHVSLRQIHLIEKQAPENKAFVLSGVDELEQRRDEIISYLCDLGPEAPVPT

B1: AMX206.D8 (mixed)
DNA: GGAGCGCACTCAGCCACGACGGTGATGGATTAGCGCGGTGGATCTTAACGTGCGAGTTTCGACCTCTCTGCTAGC
modifications: 2'-OH purines, deoxy pyrimidines
B2: AMX205.H10 (mixed)
DNA: GGAGCGCACTCAGCCACTGTTGCCGACGGTGATGTATTAACGCGGGCAACGTTGGTGTTTCGACCTCTCTGCTAGC
modifications: 2'-OH purines, deoxy pyrimidines
B3: AMX198.E11 (ssRNA)
RNA: GGAGCGCACUCAGCCACGGUAACAUUGUUUCCGGCGAUUCUUUGAACGCCGUCGUGGUUUCGACCUCUCUGCUAGC
modifications: 2'-F pyrimidines
B4: AMX201.G1 (ssRNA)
RNA: GGAGCGCACUCAGCCACGCUCGGUGGGGAAAUUUUAGCCUAAUUGGCUACUUGUGCGUUUCGACCUCUCUGCUAGC
modifications: 2'-F pyrimidines
B5: AMX201.B1 (ssRNA)
RNA: GGAGCGCACUCAGCCACAGAGCCCUGAGUGUAUGAUCGCCUAGAUCUAUCGAUGCUUUUUCGACCUCUCUGCUAGC
modifications: 2'-F pyrimidines
B6: AMX201.C8 (ARC840) (ssRNA)
RNA: GGAGCGCACUCAGCCACCCUCGCAAGCAUUUUAAGAAUGACUUGUGCCGCUGGCUGUUUUCGACCUCUCUGCUAGC
modifications: 2'-F pyrimidines
B7: AMX205.H11 (mixed)
DNA: GGAGCGCACTCAGCCACGGCACGACGGTGATGGATTAGCGCGGTGTCGGTGGTGTCATTTCGACCTCTCTGCTAGC
modifications: 2'-OH purines, deoxy pyrimidines
B8: AMX206.A10 (mixed)
DNA: B7 DNA with C22T, G33A
modifications: 2'-OH purines, deoxy pyrimidines
B9: AMX206.D7 (mixed)
DNA: B7 DNA with G33A, C56T
modifications: 2'-OH purines, deoxy pyrimidines
B10: AMX205.D11 (mixed)
DNA: B7 DNA with G33A
modifications: 2'-OH purines, deoxy pyrimidines
B11: AMX205.H8 (mixed)
DNA: GGAGCGCACTCAGCCACAAACGGACGGTGATGGATTAACGCGGGTTTATGGCAAGGTTTCGACCTCTCTGCTAGC
modifications: 2'-OH purines, deoxy pyrimidines
B12: AMX198.A10 (ssRNA)
RNA: GGAGCGCACUCAGCCACCAGUUAUGCUGGCUUUGGUCUUUGACUGUCUGAGUGUUCGUUUCGACCUCUCUGCUAGC
modifications: 2'-F pyrimidines
B13: AMX238.F5 (ssDNA)
DNA: CTACCTACGATCTGACTAGCGGAATGAGAAGCTGGTGGATTGCTCAGGTCTGCTGGCTGCTTACTCTCATGTAGTTCC
B14: ARC1381 (mixed)
mixed: GCGUGCAGUGCCUUCGGCCGTGCGGTGCCUCCGUCACGC
modifications: 2'-OMe at 1-4,8-18,20,22,27,28,30,33,34,36-39, rest deoxy; PS between 35 and 36; 3'-idT
B15: AMX205.F7 (ARC841) (mixed)
DNA: GGAGCGCACTCAGCCACACGACATTGGCGGGTTGTAATTACCACGCATGGCTGTTTGTTTCGACCTCTCTGCTAGC
modifications: 2'-OH purines, deoxy pyrimidines
B16: AMX206.F9 (mixed)
DNA: GGAGCGCACTCAGCCACGGAGCGTCGGTGATGGATTAGCGCGGCTCCGTGGTACACATTTCGACCTCTCTGCTAGC
modifications: 2'-OH purines, deoxy pyrimidines
B17: AMX206.H9 (mixed)
DNA: B16 DNA with C44T, A57C
modifications: 2'-OH purines, deoxy pyrimidines
B18: AMX205.F9 (mixed)
DNA: B16 DNA with A55G, A57C
modifications: 2'-OH purines, deoxy pyrimidines
B19: AMX206.E7 (mixed)
DNA: B16 DNA with A57C
modifications: 2'-OH purines, deoxy pyrimidines
B20: AMX198.C10 (ssRNA)
RNA: GGAGCGCACUCAGCCACUGGUCCUUAGCUAGUUGUACUAGCGACGCGUUCAGGUGGUUUCGACCUCUCUGCUAGC
modifications: 2'-F pyrimidines
B21: AMX201.H3 (ssRNA)
RNA: GGAGCGCACUCAGCCACUAACGGUUGAUCUCAGGACUAAAUAGUCAACAAGGAUGCGUUUCGACCUCUCUGCUAGC
modifications: 2'-F pyrimidines
B22: AMX201.G9 (ssRNA)
RNA: B21 RNA with U24C
modifications: 2'-F pyrimidines
B23: AMX205.H9 (mixed)
DNA: GGAGCGCACTCAGCCACGACGGTGATGGATTAGCGCGGTGGAGAAGATGCGCTGTTGTTTCGACCTCTCTGCTAGC
modifications: 2'-OH purines, deoxy pyrimidines
B24: AMX198.G1 (ssRNA)
RNA: GGAGCGCACUCAGCCACAACACUAAUGGGGAAAGUUCAAGGAUUCUUGACCGGUGCGUUUCGACCUCUCUGCUAGC
modifications: 2'-F pyrimidines
B25: AMX236.C1 (ssDNA)
DNA: CTACCTACGATCTGACTAGCGGAATGAGAATGTTGGTGGATTGCTCAGGTCTGCTGGCTGCTTACTCTCATGTAGTTCC
B26: AMX237.C1 (ssDNA)
DNA: B25 DNA with A29G, T33C
B27: AMX238.A6 (ssDNA)
DNA: B25 DNA with T33C, T34A, G36A
B28: AMX237.E10 (ssDNA)
DNA: B25 DNA with T33C
B29: AMX238.F6 (ssDNA)
DNA: B25 DNA with A29T, T33C
B30: AMX237.B12 (ssDNA)
DNA: B25 DNA with T33C, T34A
B31: AMX198.C6 (ssRNA)
RNA: GGAGCGCACUCAGCCACGGUGGUCAGUCAGUGAUAUGAUUAAGUUCAGCUGUGGCUGUUUCGACCUCUCUGCUAGC
modifications: 2'-F pyrimidines
B32: AMX198.E5 (ssRNA)
RNA: GGAGCGCACUCAGCCACUUCGACUUUCAUGUCUGAAGUCCCUGCAGUGCGAGAGACGUUUCGACCUCUCUGCUAGC
modifications: 2'-F pyrimidines
B33: AMX203.G9 (ARC842) (mixed)
DNA: GGAGCGCACTCAGCCACGGGGTGGGTAGACGGCGGGTATGTGGCTGGTGTCGAAGGGTTTCGACCTCTCTGCTAGC
modifications: 2'-OH purines, deoxy pyrimidines
B34: AMX201.H1 (ssRNA)
RNA: GGAGCGCACUCAGCCACUUUACGGUGAAAGUCUCUCGGGGUUCCGAGUUACGGUGCGUUUCGACCUCUCUGCUAGC
modifications: 2'-F pyrimidines
B35: AMX203.D6 (mixed)
DNA: GGAGCGCACTCAGCCACAGTTCTGTCGGTGATGAATTAGCGCGAGAGCTGTGGGACGTTTCGACCTCTCTGCTAGC
modifications: 2'-OH purines, deoxy pyrimidines
B36: AMX203.A1 (mixed)
DNA: B35 DNA with A44G
modifications: 2'-OH purines, deoxy pyrimidines

Key:
[1] = biological target: T2, von Willebrand factor A1 domain (Homo sapiens, UniProt P04275 SEQ:13-246); test: filter; DPBS, 0.1 mg/mL BSA, RT; details: label: 5'-32P
Procedure: Based on this initial screen, KD's were determined for 16 of the best vWF dependent binding sequences using the dot blot assay. […] A 6 point protein titration of human vWF A1 domain (SEQ ID NO 5) was used in the dot blot assay (333 nM, 100 nM, 33 nM, 10 nM, 3 nM, 0 nM) in 1× DPBS plus 0.1 mg/mL BSA at room temperature for 30 minutes. KD values were calculated by fitting the equation y=(max/(1+K/protein))+yint using KaleidaGraph (KaleidaGraph v. 3.51, Synergy Software).

[2] = biological target: T2, von Willebrand factor A1 domain; test: filter; DPBS, 0.1 mg/mL BSA, 24 C; details: label: 5'-32P
Procedure: Based on this initial screen, KDs were determined for 12 of the best vWF dependent binding sequences using the dot blot assay and are reported in column 5 of Table 4 below.

[3] = biological target: T3, von Willebrand factor full length (Homo sapiens, UniProt P04275 SEQ:764-2813); test: filter; 20 nM protein; details: tags: Calbiochem 681300
Procedure: (§1) When a significant positive ratio of binding of DNA in the presence of human or rabbit vWF A1 domain versus in the absence of protein was seen, the pools were cloned using the TOPO TA cloning kit (Invitrogen Cat.# 45-0641, Carlsbad, Calif.) according to the manufacturer's instructions. […] All unique clones were assayed twice in a 3-point dot blot screen (no protein target control, 20 nM full length human vWF (Calbiochem Cat.# 681300, La Jolla, Calif.), or 20 nM rabbit vWF A1 domain. The data is presented in the third and fourth columns of Table 17 below as the ratio of the fraction of the aptamer bound to the nitrocellulose in the presence of the target protein to the fraction of aptamer bound in the absence of the target protein.

[4] = biological target: T1, von Willebrand factor A1 domain (rabbit); test: filter; 20 nM protein; details: tags: 6xHis
Procedure: as §1

[5] = biological target: T3, von Willebrand factor full length; test: filter; details: tags: Calbiochem 681300
Procedure: For KD determination, chemically synthesized aptamers were purified using denaturing polyacrylamide gel electrophoresis, 5′end labeled with γ-³²P ATP and were tested for direct binding to full length human vWF (Calbiochem Cat.# 681300, La Jolla, Calif.). An 8 point protein titration was used in the dot blot binding assay (100 nM, 30 nM, 10 nM, 3 nM, 1 nM, 300 pM, 100 pM, 0 pM)) in 1× Dulbecco's PBS containing […] (final volume of 50 uL) for 30 minutes at room temperature. KD values were calculated by fitting the equation y=(max/(1+K/protein))+yint using KaleidaGraph (KaleidaGraph v. 3.51, Synergy Software).

Binder | Kd [1] [nM] | Kd [2] [nM] | also measured
B1 | 370 | – | –
B2 | 397 | – | –
B3 | – | 1060 | –
B4 | – | 190 | –
B5 | – | 19 | –
B6 | – | 0.2 | –
B7 | 144 | – | –
B8 | 111 | – | –
B9 | 187 | – | –
B10 | 124 | – | –
B11 | 788 | – | –
B12 | – | 1860 | –
B13 | – | – | binding signal [3]: 1.05 ratio to no protein; binding signal [4]: 4.4 ratio to no protein
B14 | – | – | Kd [5]: 8.7 nM
B15 | 1.5 | – | –
B16 | 139 | – | –
B17 | 109 | – | –
B18 | 145 | – | –

Binder | Kd [1] [nM] | Kd [2] [nM] | also measured
B19 | 151 | – | –
B20 | – | 555 | –
B21 | – | 90 | –
B22 | – | 182 | –
B23 | 178 | – | –
B24 | – | 45 | –
B25 | – | – | binding signal [3]: 1.03 ratio to no protein; binding signal [4]: 3.28 ratio to no protein
B26 | – | – | binding signal [3]: 0.76 ratio to no protein; binding signal [4]: 3.47 ratio to no protein
B27 | – | – | binding signal [3]: 0.92 ratio to no protein; binding signal [4]: 3.47 ratio to no protein
B28 | – | – | binding signal [4]: 6.04 ratio to no protein
B29 | – | – | binding signal [4]: 5.36 ratio to no protein
B30 | – | – | binding signal [4]: 4.67 ratio to no protein
B31 | – | 249 | –
B32 | – | 172 | –
B33 | 1.3 | – | –
B34 | – | 189 | –
B35 | 523 | – | –
B36 | 1150 | – | –
